According to article PMC6379061 (Nature, 2018):

Target: the molecule itself
Assay: cryo-EM structure

B1: human ABCG2 E211Q mutant (ABCG2EQ) (natural protein)
chain: MSSSNVEVFIPVSQGNTNGFPATASNDLKAFTEGAVLSFHNICYRVKLKSGFLPCRKPVEKEILSNINGIMKPGLNAILGPTGGGKSSLLDVLAARKDPSGLSGDVLINGAPRPANFKCNSGYVVQDDVVMGTLTVRENLQFSAALRLATTMTNHEKNERINRVIQELGLDKVADSKVGTQFIRGVSGGERKRTSIGMELITDPSILFLDQPTTGLDSSTANAVLLLLKRMSKQGRTIIFSIHQPRYSIFKLFDSLTLLASGRLMFHGPAQEALGYFESAGYHCEAYNNPADFFLDIINGDSTAVALNREEDFKATEIIEPSKQDKPLIEKLAEIYVNSSFYKETKAELHQLSGGEKKKKITVFKEISYTTSFCHQLRWVSKRSFKNLLGNPQASIAQIIVTVVLGLVIGAIYFGLKNDSTGIQNRAGVLFFLTTNQCFSSVSAVELFVVEKKLFIHEYISGYYRVSSYFLGKLLSDLLPMRMLPSIIFTCIVYFMLGLKPKADAFFVMMFTLMMVAYSASSMALAIAAGQSVVSVATLLMTICFVFMMIFSGLLVNLTTIASWLSWLQYFSIPRYGFTALQHNEFLGQNFCPGLNATGNNPCNYATCTGEEYLVKQGIDLSPWGLWKNHVALACMIVIFLTIAYLKLLFLKKYS
- binding result: binds
